Here are results for one molecule from patent US20090191117A1.

In the assay the target is αvβ3 and αvβ5 integrins on human umbilical vein endothelial cells (human), P06756. Kind of assay: cell-based or functional assay.

B1: CNTO 95 (antibody, V domains shown)
VH: QVQLVESGGGVVQPGRSRRLSCAASGFTFSRYTMHWVRQAPGKGLEWVAVISFDGSNKYYVDSVKGRFTISRDNSENTLYLQVNILRAEDTAVYYCAREARGSYAFDIWGQGTMVTVSS
VL: EIVLTQSPATLSLSPGERATLSCRASQSVSSYLAWYQQKPGQAPRLLIYDASNRATGIPARFSGSGSGTDFTLTISSLEPEDFAVYYCQQRSNWPPFTFGPGTKVDIK
Turning to B1, the HUVEC adhesion to fibrin, percent of adhesion without antibody, antibody at 10 µg/ml was 45.1%; the HUVEC adhesion to fibrinogen, percent of adhesion without antibody, antibody at 10 µg/ml was 34.5%; the HUVEC adhesion to gelatin, percent of adhesion without antibody, antibody at 10 µg/ml stood at 54.8%; the HUVEC adhesion to vitronectin, percent of adhesion without antibody, antibody at 10 µg/ml is 3.3%.
